Test results as given in patent US8124087B2, “Methods of controlling bone loss by inhibiting DKK1” (Board of Trustees of the University of Arkansas, priority 2002, dated 2012).

Assays:
[1] = test system: multiple myeloma plasma cells; assay: Gene expression profiling of plasma cells before and after 48 hour in vivo drug treatment; parameters: species or system human; conditions: 48 hour in vivo treatment of patients
From the text: Following Ficoll-Hypaque gradient centrifugation, plasma cells obtained from the bone marrow were isolated from the mononuclear cell fraction by immunomagnetic bead selection using a monoclonal mouse anti-human CD138 antibody (Miltenyi-Biotec, Auburn, Calif.). More than 90 percent of the cells used for gene expression profiling were plasma cells, as shown by two-color flow cytometry using CD138^+/CD45^− and CD38^+/ CD45^− markers, the presence of cytoplasmic immunoglobulin light chains by immunocytochemistry, and morphology by Wright-Giemsa staining. Total RNA was isolated with RNeasy Mini Kit (Qiagen, Valencia, Calif.). Preparation of labeled cRNA and hybridization to U95Av2 microarrays containing approximately 10,000 genes (Affymetrix, Santa Clara, Calif.) was performed as previously described (Zhan et al., 2002; Zhan et al., 2003). RNA amplification was not required.
To see if multiple myeloma plasma cells also upregulate the genes in response to drugs used to treat this disease, gene expression profiling of multiple myeloma plasma cells was performed before and after 48 hour in vivo treatment with thalidomide (FIG. 33), ImiD (FIG. 34), PS-341 (FIG. 32), or dexamethasone (FIG. 35). […] In support of this notion, […] and FRZB were expressed at low to undetectable levels in 30 HMCL and several cases of extramedullary disease (FIG. 15).

Saos-2 cells [2] = assay: GST-E-cadherin binding assay / immunoblot of uncomplexed b-catenin; type: cell-based, human
Experimental: (§1) Cells were incubated in MEM, Wnt3a CM, control CM, or with recombinant Wnt3a for indicated times. For inhibition studies, cells were pretreated with purified recombinant Dkk1 at indicated concentrations or Dkk1 CM, Dkk2 CM, or bone marrow plasma with low or high concentrations of Dkk1 protein for one hour. Following treatment, cells were lysed as described (Qiang et al., 2002). Cell lysates were separated by SDS-PAGE and transferred to Immobilon polyvinylidene difluoride membranes (Millipore, Bedford, Mass.). Immunoblotting was performed using the indicated antibodies.
(§2) The GST-E-cadherin binding assay was performed as described (Bafico et al., 1998). Briefly, the beta-catenin binding site of E-cadherin as a GST-fusion protein was purified using GST beads. GST-E-cadherin was used to precipitate uncomplexed b-catenin present in 500 ng of cell lysate. Precipitated b-catenin was detected by immunoblotting using a b-catenin monoclonal antibody. Non-phosphorylated b-catenin was detected with a monoclonal antibody specific for b-catenin dephosphorylated at residues of 27-37 (Alexis, San Diego, Calif.).
The GST-E-cadherin binding assay was performed as described (Bafico et al., 1998). […] Precipitated beta-catenin was detected by immunoblotting analysis using a b-catenin monoclonal antibody (Qiang et al., 2005).

C2C12 cells [3] = assay: Osteoblast differentiation assay (alkaline phosphatase), 5 days; type: cell-based, mouse; conditions: 50 ng/ml BMP-2 + 50 ng/ml recombinant human DKK1, 5 days
Experimental: C2C12 mesenchymal precursor cells (American Type Tissue Culture, Reston, Va.) were cultured in DMEM (Invitrogen, Carlsbad, Calif.) supplemented with 10 percent heat-inactivated fetal calf serum. Alkaline phosphatase activity in C2C12 cells was measured as described (Gallea, et al., 2001; Spinella-Jaegle, et al., 2001). Cell lysates were analyzed for protein content using the micro-BCA assay kit (Pierce, Rockford, Ill.).

C2C12 cells [4] = assay: OPG mRNA (qPCR) and protein (ELISA) in osteoblast cells; type: cell-based, mouse
Experimental: (§3) C2C12 cells were cultured in 6-well plates in DMEM with 10% FBS and maintained at subconfluence. MM cells (5×10^5/ml) were seeded on the C2C12 in the presence or absence of Wnt3a-CM or Cont-CM for indicated times. For coculture with primary cells, CD138 positive cells were cultured on of the C2C12 monolayer […] in the presence or absence of rWnt3a with and without anti-DKK1 antibody (R&D System) for 48 hours. Total RNA was isolated using TRIZOL reagent (Invitrogen). Supernatants were harvested for protein analysis.
(§4) Microtiter plates were coated with 50 μl of anti-DKK1 antibody (R&D Systems, Minneapolis, Minn.) according to manufacturer recommendations. Bone marrow serum (1:50) in dilution buffer was added and incubated overnight at 4° C. Plates were washed and incubated with biotinylated goat anti-human DKK1 IgG (R&D Systems, Minneapolis, Minn.) followed by streptavidin-horseradish peroxidase (Vector Laboratories), according to manufacturer recommendations. The concentrations of OPG and RANKL proteins in cultured supernatant were measured using the kits from according to manufacturer recommendations (R&D Systems, Minneapolis, Minn.).
(§5) One microgram of total RNA was reverse transcribed into total cDNA. Quantitative PCR (qPCR) was performed using an ABI Prism 7000 sequence detection system (Applied Biosystems, Foster City, Calif.). The reaction mixture contained 1 ml of cDNA, dedicated buffers with specific primers and probes (5′-labeled by 6-carboxy-fluorescein and 3′-labeled by 1-carboxy-teteramethyrhdamine), and DNA polymerase in a total 20 ml volume. […] Each cDNA sample was analyzed in triplicate in parallel with GAPDH as a control. Changes in mRNA concentration were determined by subtracting the CT (threshold cycle) of target gene from the CT of GAPDH (Δ=CT gene−CT GAPDH). The mean of Δ control was subtracted from the ΔSiLRP5/6 reaction (mean Δ control−ASiLRP5/6=e) The difference was calculated as 2^e by the ^2-ΔΔCT (Livak and Schmittgen, 2001).

C2C12 cells [5] = assay: Alkaline phosphatase (ALP) assay, BMP-2-induced differentiation; type: cell-based, mouse; conditions: 72 hrs
Experimental: ALP activity was measured using ALP kit (Diagnostic Chemical Limited, Exton, Pa.) according to manufacturer instructions. Absorbance The of samples was determined with a Spectra Max340 Microplate Spectrophotometer (Molecular Devices, Sunnyvale, Calif.) at 402 nm. Cell lysates were analyzed for protein content with using the micro-BCA assay kit (Pierce, Rockford, Ill.).
Chemical synthesis of siRNA specific to LRP5/6, GFP, and control siRNA were purchased from Qiagen (Valencia, Calif.). The siRNA were transiently transfected into C2C12 using Lipofectamine according to manufacturer instructions (Invitrogen). RNA was isolated after 24, 48 or 72 hours then subjected to RT-PCR or qPCR for determination of efficacy of target gene silencing.

C2C12 cells [6] = assay: TOPflash LEF/TCF luciferase reporter gene assay; type: cell-based; conditions: mouse pre-osteoblasts
Experimental: Cells plated at 5×10^4 per well in a 12-well plate were transiently co-transfected with […] of either TOPflash, FOPflash (Korinek et al., 1997), or Cbfa-1-luc (kindly provided by Dr. Ying Zhang, NCI, NIH) and 50 ng of pSV-b-galactosidase vector to normalize for transfection efficiency using Lipofectamine according to manufacturer instructions (Invitrogen). Following transfection, cells were exposed to Wnt3a CM or control CM for 24 hr prior to luciferase assay. Luciferase activity was measured as previously described (Qiang et al., 2003).

C2C12 cells [7] = assay: RANKL mRNA (qPCR) in osteoblast cells; type: cell-based, mouse; conditions: 48 hours
Experimental: as §3, §5

C2C12 cells [8] = assay: GST-E-cadherin binding assay / immunoblot of uncomplexed b-catenin; type: cell-based, mouse
hFOB 1.19 cells = assay: as above; type: cell-based, human; conditions: lowest concentration tested (5 ng/ml)
Experimental: as §1, §2

Saos-2 cells [9] = assay: OPG mRNA (qPCR) and protein (ELISA) in osteoblast cells; type: cell-based, human
Experimental: as §4
as §5, with “Calif.).” for “Calif.). The reaction mixture contained 1 ml of cDNA, dedicated buffers with specific primers and probes (5′-labeled by 6-carboxy-fluorescein and 3′-labeled by 1-carboxy-teteramethyrhdamine), and DNA polymerase in a total 20 ml volume.”, “2001). […]” for “2001).”

MG63 cells = assay: OPG mRNA (qPCR) in osteoblast cells; type: cell-based, human; conditions: data not shown
Experimental: One microgram of total RNA was reverse transcribed into total cDNA. Quantitative PCR (qPCR) was performed using an ABI Prism 7000 sequence detection system (Applied Biosystems, Foster City, Calif.). The reaction mixture contained […], dedicated buffers with specific primers and probes (5′-labeled by 6-carboxy-fluorescein and 3′-labeled by 1-carboxy-teteramethyrhdamine), and DNA polymerase in a total […]. Following 2 min incubation at 50° C. and 10 min incubation at 95° C. for denaturing, the reaction was subjected to 40-cycle amplification at 95° C. for 15 s to denature and at 60° C. for 1 min for annealing/extension. Each cDNA sample was analyzed in triplicate in parallel with GAPDH as a control. Changes in mRNA concentration were determined by subtracting the CT (threshold cycle) of target gene from the CT of GAPDH (Δ=CT gene−CT GAPDH). The mean of Δ control was subtracted from the ΔSiLRP5/6 reaction (mean Δ control−ASiLRP5/6=e) The difference was calculated as 2^e by the ^2-ΔΔCT (Livak and Schmittgen, 2001).

[10] = dose- and time-dependent, maximum reached

## O=C1CCC(N2C(=O)c3ccccc3C2=O)C(=O)N1 (stereo not shown) [thalidomide]
[1]
  DKK-1 and FRZB expression after drug treatment: massively upregulated in many cases

## CC(C)C[C@H](NC(=O)[C@H](Cc1ccccc1)NC(=O)c1cnccn1)B(O)O [PS-341]
[1]
  DKK-1 and FRZB expression after drug treatment: massively upregulated in many cases

B1: recombinant human DKK1: recombinant Dickkopf-1 protein, soluble inhibitor of Wnt signaling (protein)
chain: TLNSVLNSNAIKNLPPPLGGAAGHPGSAVSAAPGILYPGGNKYQTIDNYQPYPCAEDEECGTDEYCASPTRGGDAGVQICLACRKRRKRCMRHAMCCPGNYCKNGICVSSDQNHFRGEIEETITESFGNDHSTLDGYSRRTTLSSKMYHTKGQEGSVCLRSSDCASGLCCARHFWSKICKPVLKEGQVCTKHRRKGSHGLEIFQRCYCGEGLSCRIQKDHHQASNSSRLHTCQRH
Saos-2 cells [2]; lowest concentration tested (5 ng/ml)
  inhibition of Wnt3a-increased non-phosphorylated b-catenin: pronounced inhibition
Saos-2 cells [2]; recombinant DKK1 before Wnt3a
  b-catenin level (pull-down assay): reduced
C2C12 cells [3]
  alkaline phosphatase production with BMP-2 plus DKK1: not produced
C2C12 cells [4]; 100 ng/ml of DKK1 in culture media
  Wnt3a-induced increase in OPG mRNA in presence of DKK1: significantly inhibited
C2C12 cells [5]; 100 ng/ml Dkk1, presence or absence of Wnt3a
  BMP-2-induced ALP activity after Dkk1 pretreatment: significantly inhibited ALP activity
C2C12 cells [6]
  Wnt3a-induced TCF/LEF transcriptional activity in presence of Dkk1: completely attenuates
C2C12 cells [7]; 100 ng/ml DKK1 pretreatment
  RANKL mRNA decreased by Wnt3a, after DKK1 pretreatment: restored
C2C12 cells [8]; pretreatment before Wnt3a
  concentration of maximal inhibition of Wnt3a-increased non-phosphorylated b-catenin: 50 ng/mL
C2C12 cells [8]; recombinant DKK1 before Wnt3a
  b-catenin level (pull-down assay): reduced
hFOB 1.19 cells
  inhibition of Wnt3a-increased non-phosphorylated b-catenin: pronounced inhibition

B2: Wnt3a: recombinant Wnt3a (R&D Systems), canonical Wnt ligand (protein, UniProt P56704 19-352, looked up)
Protein Wnt-3a: SYPIWWSLAVGPQYSSLGSQPILCASIPGLVPKQLRFCRNYVEIMPSVAEGIKIGIQECQHQFRGRRWNCTTVHDSLAIFGPVLDKATRESAFVHAIASAGVAFAVTRSCAEGTAAICGCSSRHQGSPGKGWKWGGCSEDIEFGGMVSREFADARENRPDARSAMNRHNNEAGRQAIASHMHLKCKCHGLSGSCEVKTCWWSQPDFRAIGDFLKDKYDSASEMVVEKHRESRGWVETLRPRYTYFKVPTERDLVYYEASPNFCEPNPETGSFGTRDRTCNVSSHGIDGCDLLCCGRGHNARAERRREKCRCVFHWCCYVSCQECTRVYDVHTCK
Saos-2 cells [9]
  increase of OPG protein relative to controls (ELISA of supernatants): 4 fold
Saos-2 cells [9]; [10]
  increase of OPG mRNA: 2 fold
MG63 cells
  increase of OPG mRNA: 1.5 fold
C2C12 cells [4]
  increase of OPG protein relative to controls (ELISA of supernatants): 2000 fold
C2C12 cells [4]; [10]
  increase of OPG mRNA: 40 fold
C2C12 cells [5]; DMEM with 2% horse serum
  ALP activity, factor alone: no effect
C2C12 cells [7]
  RANKL mRNA after Wnt3a: significant decrease in RANKL mRNA
